Data as given in the Immune Epitope Database (IEDB).

Experiments:
Test in all cases: IEDB peptide-MHC binding, purified MHC/competitive/fluorescence; filed as Kd, often an IC50 or EC50 that approximates it; ≥ and ≤ were set here for values at or beyond the usual limits of such assays
Details in all cases: source organism: Entamoeba histolytica HM-1:IMSS
HLA-B*44:02 = target: HLA-B*44:02
HLA-B*15:17 = target: HLA-B*15:17
HLA-A*29:02 = target: HLA-A*29:02
HLA-B*27:05 = target: HLA-B*27:05
HLA-B*18:01 = target: HLA-B*18:01
HLA-B*27:03 = target: HLA-B*27:03
HLA-B*40:01 = target: HLA-B*40:01
HLA-A*24:03 = target: HLA-A*24:03

Sequence: EVRKAIEFV
- Kd (HLA-B*44:02): ≥ 5 µM
- Kd (HLA-B*15:17): ≥ 20 µM
- Kd (HLA-A*29:02): ≥ 20 µM
- Kd (HLA-B*27:05): ≥ 5 µM
- Kd (HLA-B*18:01): ≥ 20 µM
- Kd (HLA-B*27:03): ≥ 20 µM
- Kd (HLA-B*40:01): ≥ 5 µM
- Kd (HLA-A*24:03): ≥ 20 µM
